Consider 40 sequences from the supplement of paper PMC9732359.

This data set is described as follows: protein stability index of a GFP-peptide fusion (yeast GPS) (PSI 1-4); higher = more stable; sorted into four equal gates, so the index is relative within each strain. The gist of the method: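 Peptides tiling yeast proteins in 17-residue segments were fused downstream of GFP, with Cherry expressed from the same plasmid. As a pooled library in yeast, mid-log cultures grown in leucine-free medium were sorted into four equal gates by GFP/Cherry fluorescence ratio. Gate plasmids were PCR-amplified and Illumina-sequenced, and barcodes linked reads to strains. Each peptide received a protein stability index equal to the sum of each gate's read frequency times its gate number.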

± gives the uncertainty stated by the source.

Take ILDIVINNPVNLTIHFG [FAS1]: the protein stability index (doa10∆) came out at 2.06 ± 0.088, the protein stability index (pdr5∆) was found to be 2.4 ± 0.078, the protein stability index (san1∆) is 2.5 ± 0.097 and the protein stability index (ubr1∆) came to 3.02 ± 0.075.
For the sequence IDESLFNLLILSLNKRI [YCG1], the protein stability index by setting is: (doa10∆) 2.75 ± 0.072; (pdr5∆) 2.25 ± 0.062; (san1∆) 2.03 ± 0.077; (ubr1∆) 2.15 ± 0.033.
In the case of EVEPALLLLQDYVTNPD [RPN1], the protein stability index (pdr5∆) is 1.55 ± 0.11 and the protein stability index (ubr1∆) was 1.14 ± 0.17.
Regarding KDAEYLRNYLTPNVREE [PUP1], the protein stability index (doa10∆) was 3.09 ± 0.057, the protein stability index (pdr5∆) stood at 3.01 ± 0.075, the protein stability index (san1∆) was 3.14 ± 0.056 and the protein stability index (ubr1∆) was determined as 3.16 ± 0.081.
As for YGYPSYSTIRQLVYKRG [RPL7A], the protein stability index was 1.27 ± 0.061 (doa10∆), 1.52 ± 0.046 (pdr5∆), 1.25 ± 0.12 (san1∆) and 1.41 ± 0.047 (ubr1∆).
Regarding IHVLEQDGGIMGSLING [SKI6], the protein stability index stood at 3.45 ± 0.09 (doa10∆), 3.1 ± 0.1 (pdr5∆), 3.36 ± 0.082 (san1∆) and 3.18 ± 0.066 (ubr1∆).
With QNKEIKAERVEDQKVVD [RPL6A], the protein stability index is, setting by setting: (doa10∆) 3.4 ± 0.067; (pdr5∆) 3.44 ± 0.066; (san1∆) 3.33 ± 0.041; (ubr1∆) 3.35 ± 0.052.
On to LNLDSEQTVEYMVSRAI [RPN3], for which the protein stability index reads like this: (doa10∆) 3.32 ± 0.23; (pdr5∆) 3.22 ± 0.3; (san1∆) 2.93 ± 0.25; (ubr1∆) 2.83 ± 0.11.
Consider KDILNLASEVGDPALVY [ECM29], for which the protein stability index runs as follows: (doa10∆) 2.87 ± 0.09; (pdr5∆) 3.15 ± 0.12; (san1∆) 3.39 ± 0.066; (ubr1∆) 2.87 ± 0.076.
In turn, YSQSPPRSPGRSPTRRL [SMC4] returned a protein stability index (doa10∆) of 2.57 ± 0.15, a protein stability index (pdr5∆) of 3.19 ± 0.11, a protein stability index (san1∆) of 2.98 ± 0.089 and a protein stability index (ubr1∆) of 3.04 ± 0.11.
For the sequence GITHFRAGMTHEDEKLI [PRP8], the protein stability index is, setting by setting: (doa10∆) 2.62 ± 0.079; (pdr5∆) 2.47 ± 0.065; (san1∆) 3.1 ± 0.059; (ubr1∆) 3.14 ± 0.044.
For PFETFDHASIRRGYQVY [CYT1], the protein stability index was determined as 2.68 ± 0.048 (doa10∆), 2.65 ± 0.044 (pdr5∆), 2.82 ± 0.047 (san1∆) and 2.9 ± 0.032 (ubr1∆).
On to GTENTERPPLLPILPIQ [YOR098C/NUP1], for which the protein stability index by setting is: (doa10∆) 2.42 ± 0.17; (pdr5∆) 3.08 ± 0.17.
In the case of ARIKDAFITQLESSITD [YJL039C/NUP192], the protein stability index runs as follows: (doa10∆) 2.83 ± 0.11; (pdr5∆) 2.25 ± 0.1; (san1∆) 1.14 ± 0.11.
Take NMGMNNMNNGGKELDSL [PGD1]: the protein stability index is, setting by setting: (doa10∆) 3.54 ± 0.28; (pdr5∆) 3.64 ± 0.24; (san1∆) 3.24 ± 0.11; (ubr1∆) 3.24 ± 0.082.
In turn, WSSLLNEGLVEYIDAEE [RPB2] returned a protein stability index (doa10∆) of 2.84 ± 0.21, a protein stability index (pdr5∆) of 3.44 ± 0.17 and a protein stability index (ubr1∆) of 2.97 ± 0.16.
EKKDSGSSKPAFSFGAK [YJL041W/NSP1]: the protein stability index came out at 3.32 ± 0.1 (doa10∆), 3.26 ± 0.098 (pdr5∆), 3.08 ± 0.073 (san1∆) and 3.35 ± 0.051 (ubr1∆).
SSEGFYSKIKHLGLDDP [SIR2]: the protein stability index runs as follows: (doa10∆) 1.83 ± 0.2; (pdr5∆) 2.72 ± 0.14; (san1∆) 1.96 ± 0.17; (ubr1∆) 1.2 ± 0.14.
As to TSIGIKCNDGVVFAVEK [PRE10], the protein stability index (san1∆) was 2.61 ± 0.29.
On to TTQGGLTSVTRHGFNRS [RPO21], for which the protein stability index runs as follows: (doa10∆) 3.14 ± 0.088; (pdr5∆) 3.04 ± 0.08; (san1∆) 3.15 ± 0.077; (ubr1∆) 3.26 ± 0.071.
Consider VGEEETSQKMKKMVYVL [SRP54], for which the protein stability index came to 3.31 ± 0.11 (doa10∆), 3.38 ± 0.11 (pdr5∆), 3.31 ± 0.078 (san1∆) and 3.17 ± 0.077 (ubr1∆).
Take KWDDLNEQLTLLSKKHG [RPN5]: the protein stability index came to 2.67 ± 0.099 (doa10∆), 2.92 ± 0.083 (pdr5∆), 2.58 ± 0.063 (san1∆) and 2.94 ± 0.055 (ubr1∆).
On to EWKSEFVVPTFGQDVSP [SNM1], for which the protein stability index was found to be 2.25 ± 0.052 (doa10∆), 2.29 ± 0.055 (pdr5∆), 3.04 ± 0.063 (san1∆) and 2.24 ± 0.05 (ubr1∆).
Consider IPIAIVLKACGILSDLE [RET1], for which the protein stability index is, setting by setting: (doa10∆) 1.4 ± 0.057; (pdr5∆) 1.43 ± 0.061; (san1∆) 1.36 ± 0.096; (ubr1∆) 2.02 ± 0.053.
On to RKLFPNWIKPSDSEIPP [PRP8], for which the protein stability index was 3.42 ± 0.16 (doa10∆), 2.89 ± 0.11 (pdr5∆), 2.91 ± 0.069 (san1∆) and 2.97 ± 0.053 (ubr1∆).
As for TLIVVPFNQGSKQDVEA [FAS2], the protein stability index is, setting by setting: (doa10∆) 2.87 ± 0.12; (pdr5∆) 3.2 ± 0.12; (san1∆) 3.13 ± 0.09; (ubr1∆) 3.3 ± 0.12.
Take TRFKAVVVVGDSNGHVG [RPS2]: the protein stability index runs as follows: (doa10∆) 1.87 ± 0.05; (pdr5∆) 1.96 ± 0.064; (san1∆) 1.84 ± 0.11; (ubr1∆) 1.99 ± 0.043.
NSSTSSTSNTPSPPNVI [YDL088C/ASM4]: the protein stability index was 2.88 ± 0.05 (doa10∆), 2.88 ± 0.045 (pdr5∆), 2.7 ± 0.052 (san1∆) and 3.06 ± 0.043 (ubr1∆).
Regarding RKDTVSREVLRYEEFAD [RPC40], the protein stability index was determined as 3.38 ± 0.11 (doa10∆), 3.59 ± 0.15 (pdr5∆), 3.32 ± 0.082 (san1∆) and 3.3 ± 0.11 (ubr1∆).
Consider PTMYTRLCICSGMLFEM [SIN4], for which the protein stability index was found to be 1.29 ± 0.041 (doa10∆), 1.28 ± 0.041 (pdr5∆), 1.39 ± 0.08 (san1∆) and 1.44 ± 0.033 (ubr1∆).
For the sequence LSQLCAVPLQIVSPQSN [RPO21], the protein stability index was 1.88 ± 0.063 (doa10∆), 1.91 ± 0.058 (pdr5∆), 1.9 ± 0.084 (san1∆) and 1.87 ± 0.04 (ubr1∆).
In the same order, the values of EQIDENWSKEDLQKLLK [SWI3] are 3.16 ± 0.067, 3.08 ± 0.085, 3.02 ± 0.073 and 3.26 ± 0.058.
For LLSENRSEKSTTNAQTK [SRP54], in that order: 2.86 ± 0.15, 2.84 ± 0.099, 2.88 ± 0.09 and 2.92 ± 0.064.
In the same order, the values of TSGTSSEQFNVWDWNNW [GAL11] are 2.56 ± 0.086, 3.11 ± 0.11, 2.71 ± 0.073 and 2.73 ± 0.096.
In turn, RNEKIAVHVTVRGPKAE [RPL11A] displayed a protein stability index (doa10∆) of 2.54 ± 0.067, a protein stability index (pdr5∆) of 2.3 ± 0.061, a protein stability index (san1∆) of 1.93 ± 0.12 and a protein stability index (ubr1∆) of 2.62 ± 0.053.
With GSCTRQLAGKSGEDTNV [YOR098C/NUP1], the protein stability index is, setting by setting: (doa10∆) 3.38 ± 0.2; (pdr5∆) 3.51 ± 0.15; (san1∆) 3.34 ± 0.12; (ubr1∆) 3.17 ± 0.082.
The sequence SIGYETELKKITDKTIK [IRR1] displayed a protein stability index (doa10∆) of 3.06 ± 0.07, a protein stability index (pdr5∆) of 3.12 ± 0.066, a protein stability index (san1∆) of 2.99 ± 0.062 and a protein stability index (ubr1∆) of 3 ± 0.082.
In the case of EPIKLEPVKEYTFKTSM [YMR129W/POM152], the protein stability index reads like this: (doa10∆) 2.22 ± 0.098; (pdr5∆) 2.29 ± 0.08; (san1∆) 1.99 ± 0.17.
For the sequence SGVPRLKEILNVAKNMK [RPO21], the protein stability index stood at 1.23 ± 0.12 (doa10∆), 1.83 ± 0.12 (pdr5∆), 1.32 ± 0.26 (san1∆) and 1.4 ± 0.082 (ubr1∆).
Take DELETKAEKKVELHGKR [PRP8]: the protein stability index by setting is: (doa10∆) 2.84 ± 0.19; (pdr5∆) 2.95 ± 0.17; (san1∆) 3.4 ± 0.26; (ubr1∆) 2.63 ± 0.18.
